Data: article PMC8481289, “Structural basis for UFM1 transfer from UBA5 to UFC1” (Nature Communications, 2021)
Each block holds one binder with its values, some of them ahead of it.

B3: UFC1 (WT) (enzyme, human)
chain: MADEATRRVVSEIPVLKTNAGPRDRELWVQRLKEEYQSLIRYVENNKNADNDWFRLESNKEGTRWFGKCWYIHDLLKYEFDIEFDIPITYPTTAPEIAVPELDGKTAKMYRGGKICLTDHFKPLWARNVPKFGLAHLMALGLGPWLAVEIPDLIQKGVIQHKEKCNQ
notes: UFC1, the E2 of UFM1; active site C116; 15N-labelled (M9 medium with 15NH4Cl) for the NMR titrations; In the two crystal structures UFC1 stood as part of a fusion chain; also called E2

Experiments:
Conditions in all cases: both partners purified
[1] = biological target: B3; assay: crystal structure; UBA5(347-404) fused to the N-terminus of UFC1; 2.65 Å; the UBS binds the UFC1 of a molecule of another asymmetric unit; 2% tacsimate pH 7.0, 20% PEG 3350, 0.1 M HEPES pH 7.5, 6 mM zinc sulfate, 20 °C
[2] = biological target: B3; assay: crystal structure; UBA5(389-404) fused to the C-terminus of UFC1; 2.4 Å; the UBS binds the UFC1 of a fusion molecule of another asymmetric unit; 35 mM citric acid, 65 mM bis-tris propane, 19% PEG3350, 100 mM LiCl, 20 °C
[3] = biological target: T1, UBA5 Y372A (human, UniProt Q9GZZ9 1-404, Y372A); assay: ITC; UFC1 titrated into the UBA5 construct (heat per mole of UFC1); MicroCal PEAQ ITC, 25 °C; 20 mM Tris pH 7.5, 50 mM NaCl, 2 mM DTT; 19 injections of 2 μl; fitted to the two sets of sites model
T1 construct: UBA5, human, point mutant in the linker between UIS and UBS

[4] = biological target: T2, UBA5 double mutant C250A and A371C (human, UniProt Q9GZZ9 1-404, C250A | A371C); assay: cross-linking; disulfide trapping: DPDS-activated UFC1-NC (4 μM) mixed with 2 μM UBA5 (WT or mutants) in PBS, 25 °C, 20 min; non-reducing SDS-PAGE, Coomassie
T2 construct: UBA5, human, active site Cys removed and a Cys placed in the linker

[5] = biological target: T3, UBA5 WT (human, UniProt Q9GZZ9 1-404); assay: as above
T3 construct: UBA5, human; active site C250; also called E1

[6] = biological target: B3; assay: ITC; UFC1 titrated into the UBA5 construct (heat per mole of UFC1); MicroCal PEAQ ITC, 25 °C; 20 mM Tris pH 7.5, 50 mM NaCl, 2 mM DTT; 19 injections of 2 μl; fitted to the two sets of sites model

B1: UBA5(347–404) (domain or fragment, human, UniProt Q9GZZ9 347-404, looked up)
chain: SEVSEEELKNFSGPVPDLPEGITVAYTIPKKQEDSVTELTVEDSGESLEDLMAKMKNM
notes: In the crystal structure 7NVK the same stretch stood fused to the N-terminus of UFC1
binding result [1]: binds

Binder: B3
binding result [3]: binds

B5: UBA5(Δ349-389) (enzyme, human)
chain: MAESVERLQQRVQELERELAQERSLQVPRSGDGGGGRVRIEKMSSEVVDSNPYSRLMALKRMGIVSDYEKIRTFAVAIVGVGGVGSVTAEMLTRCGIGKLLLFDYDKVELANMNRLFFQPHQAGLSKVQAAEHTLRNINPDVLFEVHNYNITTVENFQHFMDRISNGGLEEGKPVDLVLSCVDNFEARMTINTACNELGQTWMESGVSENAVSGHIQLIIPGESACFACAPPLVVAANIDEKTLKREGVCAASLPTTMGVVAGILVQNVLKFLLNFGTVSFYLGYNAMQDFFPTMSMKPNPQCDDRNCRKQQEEYKKKVAALPKQEVIQEEEEIIHEDNEWGIELVSEGSGSGESLEDLMAKMKNM
notes: UBA5, human, up to residue 348; UBA5, human, from residue 390 to the C-terminus (holds the UBS); Linker between UIS and UBS removed, UBS kept
Kd [6]: 5.5 µM

More lines, now with the values ahead:

binding result [2]: binds
B2: UBA5 (389-404) (domain or fragment, human, UniProt Q9GZZ9 389-404, looked up)
chain: DSGESLEDLMAKMKNM
notes: UBA5, human, residues 389-404 (holds the UBS); Never stood alone: it was fused to the C-terminus of UFC1 for the crystal structure; also called UBS; source: E. coli T7 express, purified, as part of the fusion UFC1-UBA5(389-404)

binding result [4]: binds
binding result [5]: binds
B4: UFC1-NC (enzyme, human)
chain: MADEATRRVVSEIPVLKTNAGPRDRELWVQRLKEEYQSLIRYVENNKNADNDWFRLESNKEGTRWFGKSWYIHDLLKYEFDIEFDIPITYPTTAPEIAVPELDGKTAKMYRGGKICLTDHFKPLWARNVPKFGLAHLMALGLGPWLAVEIPDLIQKGVIQHKEKSNQ
modifications: activated with the crosslinker 2,2' dithiodipyridyldisulfide (DPDS); only the active site C116 is left
notes: UFC1 with C69 and C165 mutated to serine, leaving only the active site C116
